Laboratory results from PMC11864811, “Human CST Stimulates Base Excision Repair to Prevent the Accumulation of Oxidative DNA Damage” (Journal of molecular biology, 2024).

Tests used:
[1] = target: Recombinant human Pol β (6X-His tagged) (human, UniProt P06746 1-335); assay: cell-based or functional assay
[2] = target: Recombinant human OGG1 (6X-His tagged) (human, UniProt O15527 1-345); assay: cell-based or functional assay
Recombinant human OGG1 (6X-His tagged), sequence (O15527 whole entry): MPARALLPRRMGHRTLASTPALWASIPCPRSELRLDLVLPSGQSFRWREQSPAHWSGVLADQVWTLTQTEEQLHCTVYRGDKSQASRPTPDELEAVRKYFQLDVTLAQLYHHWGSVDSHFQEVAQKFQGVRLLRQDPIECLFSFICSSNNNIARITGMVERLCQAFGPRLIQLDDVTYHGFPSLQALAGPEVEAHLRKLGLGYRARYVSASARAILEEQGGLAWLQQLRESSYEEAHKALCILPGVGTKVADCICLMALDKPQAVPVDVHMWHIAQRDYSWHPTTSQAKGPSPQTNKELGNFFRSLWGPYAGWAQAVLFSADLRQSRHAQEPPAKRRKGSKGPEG

B1: FLAG-TEN1 (natural protein)
chain: MMLPKPGTYYLPWEVSAGQVPDGSTLRTFGRLCLYDMIQSRVTLMAQHGSDQHQVLVCTKLVEPFHAQVGSLYIVLGELQHQQDRGSVVKARVLTCVEGMNLPLLEQAIREQRLYKQERGGSQ
[1]
  Pol β DNA synthesis on a random sequence 66 nt gapped substrate, fold increase with purified TEN1: ~3 fold
  Pol β dRP lyase activity, fold increase with purified TEN1 (250-1500 nM; value at the highest concentration): 1.5 fold

B2: FLAG-CTC1 (natural protein, human, UniProt Q2NKJ3 1-1217, looked up)
chain: MAAGRAQVPSSEQAWLEDAQVFIQKTLCPAVKEPNVQLTPLVIDCVKTVWLSQGRNQGSTLPLSYSFVSVQDLKTHQRLPCCSHLSWSSSAYQAWAQEAGPNGNPLPREQLLLLGTLTDLSADLEQECRNGSLYVRDNTGVLSCELIDLDLSWLGHLFLFPRWSYLPPARWNSSGEGHLELWDAPVPVFPLTISPGPVTPIPVLYPESASCLLRLRNKLRGVQRNLAGSLVRLSALVKSKQKAYFILSLGRSHPAVTHVSIIVQVPAQLVWHRALRPGTAYVLTELRVSKIRGQRQHVWMTSQSSRLLLLKPECVQELELELEGPLLEADPKPLPMPSNSEDKKDPESLVRYSRLLSYSGAVTGVLNEPAGLYELDGQLGLCLAYQQFRGLRRVMRPGVCLQLQDVHLLQSVGGGTRRPVLAPCLRGAVLLQSFSRQKPGAHSSRQAYGASLYEQLVWERQLGLPLYLWATKALEELACKLCPHVLRHHQFLQHSSPGSPSLGLQLLAPTLDLLAPPGSPVRNAHNEILEEPHHCPLQKYTRLQTPSSFPTLATLKEEGQRKAWASFDPKALLPLPEASYLPSCQLNRRLAWSWLCLLPSAFCPAQVLLGVLVASSHKGCLQLRDQSGSLPCLLLAKHSQPLSDPRLIGCLVRAERFQLIVERDVRSSFPSWKELSMPGFIQKQQARVYVQFFLADALILPVPRPCLHSATPSTPQTDPTGPEGPHLGQSRLFLLCHKEALMKRNFCVPPGASPEVPKPALSFYVLGSWLGGTQRKEGTGWGLPEPQGNDDNDQKVHLIFFGSSVRWFEFLHPGQVYRLIAPGPATPMLFEKDGSSCISRRPLELAGCASCLTVQDNWTLELESSQDIQDVLDANKSLPESSLTDLLSDNFTDSLVSFSAEILSRTLCEPLVASLWMKLGNTGAMRRCVKLTVALETAECEFPPHLDVYIEDPHLPPSLGLLPGARVHFSQLEKRVSRSHNVYCCFRSSTYVQVLSFPPETTISIPLPHIYLAELLQGGQSPFQATASCHIVSVFSLQLFWVCAYCTSICRQGKCTRLGSTCPTQTAISQAIIRLLVEDGTAEAVVTCRNHHVAAALGLCPREWASLLDFVQVPGRVVLQFAGPGAQLESSARVDEPMTMFLWTLCTSPSVLRPIVLSFELERKPSKIVPLEPPRLQRFQCGELPFLTHVNPRLRLSCLSIRESEYSSSLGILASSC
[2]
  OGG1 lesion removal and phosphodiester cleavage on an 8-oxo-G substrate, fold increase with purified CTC1 (250-1500 nM; value at the highest concentration): 3.1 fold
[1]
  Pol β DNA synthesis on a random sequence 66 nt gapped substrate, fold increase with purified CTC1: ~7 fold
  Pol β dRP lyase activity, fold increase with purified CTC1 (250-1500 nM; value at the highest concentration): ~7.5 fold
  Pol β strand displacement synthesis on a 6-nt gapped substrate, fold increase with purified CTC1: 3 fold

B3: Human CST complex (CTC1-STN1-TEN1) (complex)
chain 1: MAAGRAQVPSSEQAWLEDAQVFIQKTLCPAVKEPNVQLTPLVIDCVKTVWLSQGRNQGSTLPLSYSFVSVQDLKTHQRLPCCSHLSWSSSAYQAWAQEAGPNGNPLPREQLLLLGTLTDLSADLEQECRNGSLYVRDNTGVLSCELIDLDLSWLGHLFLFPRWSYLPPARWNSSGEGHLELWDAPVPVFPLTISPGPVTPIPVLYPESASCLLRLRNKLRGVQRNLAGSLVRLSALVKSKQKAYFILSLGRSHPAVTHVSIIVQVPAQLVWHRALRPGTAYVLTELRVSKIRGQRQHVWMTSQSSRLLLLKPECVQELELELEGPLLEADPKPLPMPSNSEDKKDPESLVRYSRLLSYSGAVTGVLNEPAGLYELDGQLGLCLAYQQFRGLRRVMRPGVCLQLQDVHLLQSVGGGTRRPVLAPCLRGAVLLQSFSRQKPGAHSSRQAYGASLYEQLVWERQLGLPLYLWATKALEELACKLCPHVLRHHQFLQHSSPGSPSLGLQLLAPTLDLLAPPGSPVRNAHNEILEEPHHCPLQKYTRLQTPSSFPTLATLKEEGQRKAWASFDPKALLPLPEASYLPSCQLNRRLAWSWLCLLPSAFCPAQVLLGVLVASSHKGCLQLRDQSGSLPCLLLAKHSQPLSDPRLIGCLVRAERFQLIVERDVRSSFPSWKELSMPGFIQKQQARVYVQFFLADALILPVPRPCLHSATPSTPQTDPTGPEGPHLGQSRLFLLCHKEALMKRNFCVPPGASPEVPKPALSFYVLGSWLGGTQRKEGTGWGLPEPQGNDDNDQKVHLIFFGSSVRWFEFLHPGQVYRLIAPGPATPMLFEKDGSSCISRRPLELAGCASCLTVQDNWTLELESSQDIQDVLDANKSLPESSLTDLLSDNFTDSLVSFSAEILSRTLCEPLVASLWMKLGNTGAMRRCVKLTVALETAECEFPPHLDVYIEDPHLPPSLGLLPGARVHFSQLEKRVSRSHNVYCCFRSSTYVQVLSFPPETTISIPLPHIYLAELLQGGQSPFQATASCHIVSVFSLQLFWVCAYCTSICRQGKCTRLGSTCPTQTAISQAIIRLLVEDGTAEAVVTCRNHHVAAALGLCPREWASLLDFVQVPGRVVLQFAGPGAQLESSARVDEPMTMFLWTLCTSPSVLRPIVLSFELERKPSKIVPLEPPRLQRFQCGELPFLTHVNPRLRLSCLSIRESEYSSSLGILASSC
chain 2: MQPGSSRCEEETPSLLWGLDPVFLAFAKLYIRDILDMKESRQVPGVFLYNGHPIKQVDVLGTVIGVRERDAFYSYGVDDSTGVINCICWKKLNTESVSAAPSAARELSLTSQLKKLQETIEQKTKIEIGDTIRVRGSIRTYREEREIHATTYYKVDDPVWNIQIARMLELPTIYRKVYDQPFHSSALEKEEALSNPGALDLPSLTSLLSEKAKEFLMENRVQSFYQQELEMVESLLSLANQPVIHSASSDQVNFKKDTTSKAIHSIFKNAIQLLQEKGLVFQKDDGFDNLYYVTREDKDLHRKIHRIIQQDCQKPNHMEKGCHFLHILACARLSIRPGLSEAVLQQVLELLEDQSDIVSTMEHYYTAF
chain 3: MMLPKPGTYYLPWEVSAGQVPDGSTLRTFGRLCLYDMIQSRVTLMAQHGSDQHQVLVCTKLVEPFHAQVGSLYIVLGELQHQQDRGSVVKARVLTCVEGMNLPLLEQAIREQRLYKQERGGSQ
[1]
  Pol β DNA synthesis on a random sequence 66 nt gapped substrate, fold increase with the CST complex: ~3 fold
  Pol β dRP lyase activity, fold increase with the CST complex (7.5-45 nM; value at the highest concentration): ~10 fold

B4: Myc-STN1 (natural protein, human, UniProt Q9H668 1-368, looked up)
chain: MQPGSSRCEEETPSLLWGLDPVFLAFAKLYIRDILDMKESRQVPGVFLYNGHPIKQVDVLGTVIGVRERDAFYSYGVDDSTGVINCICWKKLNTESVSAAPSAARELSLTSQLKKLQETIEQKTKIEIGDTIRVRGSIRTYREEREIHATTYYKVDDPVWNIQIARMLELPTIYRKVYDQPFHSSALEKEEALSNPGALDLPSLTSLLSEKAKEFLMENRVQSFYQQELEMVESLLSLANQPVIHSASSDQVNFKKDTTSKAIHSIFKNAIQLLQEKGLVFQKDDGFDNLYYVTREDKDLHRKIHRIIQQDCQKPNHMEKGCHFLHILACARLSIRPGLSEAVLQQVLELLEDQSDIVSTMEHYYTAF
[2]
  OGG1 lesion removal and phosphodiester cleavage on an 8-oxo-G substrate, fold increase with purified STN1 (250-1500 nM; value at the highest concentration): 4.3 fold
[1]
  Pol β DNA synthesis on a random sequence 66 nt gapped substrate, fold increase with purified STN1: ~7 fold
  Pol β dRP lyase activity, fold increase with purified STN1 (250-1500 nM; value at the highest concentration): 8 fold
  Pol β strand displacement synthesis on a 6-nt gapped substrate, fold increase with purified STN1: 3 fold
